Legend:
VLDLR CR78 = target: T1, VLDLR CR78 (Homo sapiens, UniProt P98155); assay: Solid phase binding assay; conditions: highest ligand concentrations tested
T1 construct: a CR pair from VLDLR (CR78); made in house; host or cells: E. coli BL21(DE3) CodonPlus-RIPL, pET30(+)a

MAT CR23 = target: T2, MAT CR23 (Homo sapiens, UniProt Q9Y5Y6); assay: Solid phase binding assay; conditions: highest ligand concentrations tested
T2 construct: made in house; host or cells: E. coli BL21(DE3) CodonPlus-RIPL, pET30(+)a
T2 sequence (Q9Y5Y6 487-566): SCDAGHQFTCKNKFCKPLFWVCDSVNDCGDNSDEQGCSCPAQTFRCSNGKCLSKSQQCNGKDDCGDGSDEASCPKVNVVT

B1: RAP d3: third domain of human RAP, amino acids 201-319 of mature RAP, bacterially expressed with hexahistidine and S-peptide tags (SEQ ID NO: 92) (protein, listed as Homo sapiens)
chain: LDRLRRVSHQGYSTEAEFEEPRVIDLWDLEQSANLTDKELEAFREELKHFEAKIEKHNHYQKQLEIAHEKLRHAESVGDGERVSRSREKHALLEGRTKELGYTVKKHLQDLSGRISRAR
modifications: hexahistidine and S-peptide tags
binding relative to that for LRP1 CR3-5 (VLDLR CR78): less than 5%
binding relative to that for LRP1 CR3-5 (MAT CR23): less than 5%
